{"source": "paper PMC10716173", "origin": "cited, not measured here", "target": "stapled BID BH3 peptide BH3 (Homo sapiens) (UniProt P55957)", "sequence (P55957 80-101)": "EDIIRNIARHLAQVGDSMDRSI", "note": "pKd: −log10 of the molar value."}
{"substance": "BAK (from UniProt Q16611)", "values": [{"measurement": "pKd", "value": 6.00}]}
